From patent US20180328920A1 (Hoffmann-La Roche, published 2018) come the findings set out here.

Experiment [1] has as its target T1, PD1-SNAP (human PD1 extracellular domain - SNAP tag - PD1 transmembrane region - Flag tag, on HEK293 cells) (human, SNAP tag labelled with SNAP-Lumi4-Tb (FRET donor dye)).
T1 construct: also called PD1 receptor on PD1+Tim3+ HEK cells
Kind of experiment: cell-based TR-FRET (Tag-lite) on HEK293 cells co-expressing PD1-SNAP and Tim3-CLIP; signal needs simultaneous binding of both.

In experiment [2] the target is T2, Tim3-CLIP (human Tim3 extracellular domain - CLIP tag - Tim3 transmembrane region - Flag tag, on HEK293 cells) (human, CLIP tag labelled with CLIP-Red (FRET acceptor dye)).
T2 construct: also called Tim3 receptor on PD1+Tim3+ HEK cells
The experiment can be described thus: cell-based TR-FRET on PD1-SNAP/Tim3-CLIP HEK293 cells (FIG. 5). The method, then:
Transfected cells were sedimented and resuspended at a density of 1×10⁶ cells/ml in tag-Lite® buffer (Cisbio). Thereafter, cells were stained with 100 nM SNAP-Lumi4-Tb (Cisbio) and 100 nM CLIP-Red (Cisbio) for one hour at 37° C. in tag-Lite® buffer (Cisbio). After washing and re-suspending in PBS buffer comprising 2% FCS (v/v), about 50.000 cells (in 50 μl volume) were seeded into 96-well flat-bottom white plates (Costar) bevor either control antibody (e.g. a bivalent, monospecific antibody or an isotype control) or bispecific antibody was added to the cells at a final concentration of 0.001-10 nM. After an incubation for one hour at 4° C. or room temperature, time-resolved fluorescence was measured as ratio of the emission signal at 665 nm and 620 nm (665/620 nm ratio) with a BMG Pherastar reader or Tecan Infinite M1000 Pro using standard settings provided by the respective vendor.
On the technique in general: In TR-FRET formats the signal depends on donor and acceptor labels being close together.

Experiment [3] deals with T2, Tim3-CLIP (human Tim3 extracellular …). The experiment can be described thus: cell-based TR-FRET (Tag-lite) on HEK293 cells co-expressing PD1-SNAP and Tim3-CLIP; signal needs simultaneous binding of both.
Experiment [4] shares this target. The experiment can be described thus: cell-based TR-FRET on PD1-SNAP/Tim3-CLIP HEK293 cells, antibody at 0.01-40 nM, 1 h at 4 C (FIG. 6, diamond). The method, then:
(§1) Transfected cells were sedimented and resuspended at a density of 1×10⁶ cells/ml in tag-Lite® buffer (Cisbio). Thereafter, cells were stained with 100 nM SNAP-Lumi4-Tb (Cisbio) and 100 nM CLIP-Red (Cisbio) for one hour at 37° C. in tag-Lite® buffer (Cisbio). […] After an incubation for one hour at 4° C. or room temperature, time-resolved fluorescence was measured as ratio of the emission signal at 665 nm and 620 nm (665/620 nm ratio) with a BMG Pherastar reader or Tecan Infinite M1000 Pro using standard settings provided by the respective vendor.
(§2) To show the specificity of the FRET signal induced by simultaneous binding of the bispecific antibody, monoclonal IgGs of only one specificity were added for competition. Therefore, PD1 and Tim3 expressing HEK cells as described before were labelled with 100 nM SNAP-Lumi4-Tb and 100 nM CLIP-Red. […] A FRET signal was detected. To underline the specificity of FRET signal after bispecific antibody treatment, a monospecific, bivalent anti-PD1 monoclonal antibody was tested alone (FIG. 6, triangle). No FRET signal was detected. If the monospecific, bivalent anti-PD1 monoclonal antibody and the bispecific anti-PD1/Tim3 antibody were present (80 nM monospecific antibody concentration) no FRET signal was detected (FIG. 6, squares). Likewise no FRET signal was obtained if a bivalent, monospecific anti-Tim3 antibody was added (see FIG. 7).

Experiment [5] addresses T1, PD1-SNAP (human PD1 extracellular …). The description is as above. The method, then:
as §1, §2

B1: PD1-Tim3-0389 (bispecific antibody, human IgG1, kappa, L234A L235A)
heavy 1: not shown
heavy 2: EVQLQQSVAELVRPGASVKLSCTASGFNIKTTYMHWVKQRPEQGLEWIGRIDPADDNTKYAPKFQGKATITADTSSNTAYLQLSSLTSEDAAIYYCVRDFGYVAWFAYWGQGTLVTFSAASTKGPSVFPLAPSSKSTSGGTAALGCLVEDYFPEPVTVSWNSGALTSGVHTFPAVLQSSGLYSLSSVVTVPSSSLGTQTYICNVNHKPSNTKVDEKVEPKSCDKTHTCPPCPAPEAAGGPSVFLFPPKPKDTLMISRTPEVTCVVVDVSHEDPEVKFNWYVDGVEVHNAKTKPREEQYNSTYRVVSVLTVLHQDWLNGKEYKCKVSNKALGAPIEKTISKAKGQPREPQVCTLPPSRDELTKNQVSLSCAVKGFYPSDIAVEWESNGQPENNYKTTPPVLDSDGSFFLVSKLTVDKSRWQQGNVFSCSVMHEALHNRFTQKSLSLSPGK
light 1: EVILVESGGGLVKPGGSLKLSCAASGFSFSSYTMSWVRQTPEKRLDWVATISGGGRDIYYPDSVKGRFTISRDNAKNTLYLEMSSLMSEDTALYYCVLLTGRVYFALDSWGQGTSVTVSSASVAAPSVFIFPPSDEQLKSGTASVVCLLNNFYPREAKVQWKVDNALQSGNSQESVTEQDSKDSTYSLSSTLTLSKADYEKHKVYACEVTHQGLSSPVTKSFNRGEC
light 2: NIVMTPTPKFLPVSSGDRVTMTCRASQSVDNYVAWYQQKPGQSPKLLIYYASNRYIGVPDRFTGSGSGTDFTFTISSVQVEDLAVYFCQQHYSSPYTFGSGTKLEIKRTVAAPSVFIFPPSDRKLKSGTASVVCLLNNFYPREAKVQWKVDNALQSGNSQESVTEQDSKDSTYSLSSTLTLSKADYEKHKVYACEVTHQGLSSPVTKSFNRGEC
notes: also called bispecific anti-PD1/Tim3 antibody
Regarding B1, the binding result in experiment [1] and in experiment [2] was “binds” throughout.

B2: PD1-Tim3-0359 (bispecific antibody, human IgG1, kappa, L234A L235A)
heavy: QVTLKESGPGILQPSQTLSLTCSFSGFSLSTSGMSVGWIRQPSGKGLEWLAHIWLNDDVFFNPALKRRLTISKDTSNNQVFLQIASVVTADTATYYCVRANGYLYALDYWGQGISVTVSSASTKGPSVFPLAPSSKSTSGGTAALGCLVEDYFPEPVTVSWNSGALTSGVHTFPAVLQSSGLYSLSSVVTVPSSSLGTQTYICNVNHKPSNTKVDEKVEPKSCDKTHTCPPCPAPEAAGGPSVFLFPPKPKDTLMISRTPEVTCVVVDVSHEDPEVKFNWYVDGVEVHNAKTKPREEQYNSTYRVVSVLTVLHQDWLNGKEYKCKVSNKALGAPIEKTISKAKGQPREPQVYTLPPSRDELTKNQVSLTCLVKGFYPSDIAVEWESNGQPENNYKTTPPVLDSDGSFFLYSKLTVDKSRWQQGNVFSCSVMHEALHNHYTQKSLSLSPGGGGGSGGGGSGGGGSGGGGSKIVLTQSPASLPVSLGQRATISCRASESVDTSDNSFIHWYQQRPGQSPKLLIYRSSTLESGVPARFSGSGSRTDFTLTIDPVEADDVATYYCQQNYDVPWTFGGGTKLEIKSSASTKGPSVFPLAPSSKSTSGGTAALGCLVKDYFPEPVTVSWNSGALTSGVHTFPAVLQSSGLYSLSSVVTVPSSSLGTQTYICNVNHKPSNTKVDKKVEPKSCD
light 1: QIVLTQSPAIMSASPGQKVTITCSASSSVNYTQWYQQKLGSSPKLWIYDAFKLAPGVPARFSGSGTGTSYSLTISSMEAEDAASYFCHQWSSYPWTFGGGTKLEIKRTVAAPSVFIFPPSDRKLKSGTASVVCLLNNFYPREAKVQWKVDNALQSGNSQESVTEQDSKDSTYSLSSTLTLSKADYEKHKVYACEVTHQGLSSPVTKSFNRGEC
light 2: B1 light 1
notes: also called 2+2 format bispecific antibody PD1-Tim3-0359
As for B2, the binding result in experiment [3] and in experiment [1] was “binds” throughout.

B3: PD1-Tim3-0168 (bispecific antibody, human IgG1, kappa, L234A L235A)
heavy 1: not shown
heavy 2: QVTLKESGPGILQPSQTLSLTCSFSGFSLSTSGMSVGWIRQPSGKGLEWLAHIWLNDDVFFNPALKRRLTISKDTSNNQVFLQIASVVTADTATYYCVRANGYLYALDYWGQGISVTVSSASTKGPSVFPLAPSSKSTSGGTAALGCLVEDYFPEPVTVSWNSGALTSGVHTFPAVLQSSGLYSLSSVVTVPSSSLGTQTYICNVNHKPSNTKVDEKVEPKSCDKTHTCPPCPAPEAAGGPSVFLFPPKPKDTLMISRTPEVTCVVVDVSHEDPEVKFNWYVDGVEVHNAKTKPREEQYNSTYRVVSVLTVLHQDWLNGKEYKCKVSNKALGAPIEKTISKAKGQPREPQVCTLPPSRDELTKNQVSLSCAVKGFYPSDIAVEWESNGQPENNYKTTPPVLDSDGSFFLVSKLTVDKSRWQQGNVFSCSVMHEALHNRFTQKSLSLSPGK
light 1: B1 light 1
light 2: B2 light 1
In the case of B3, the binding result in experiment [4] and in experiment [5] was “binds” in each case.

B4: PD1-Tim3-0476 (bispecific antibody)
heavy 1: not shown
heavy 2: EVQLVESGGGLVQPGGSLRLSCAASGFNIKTTYMHWVRQAPGKGLEWVGRIDPADDNTKYAPKFQGKATISADTSKNTAYLQMNSLRAEDTAVYYCVRDFGYVAWFAYWGQGTLVTVSSASTKGPSVFPLAPSSKSTSGGTAALGCLVEDYFPEPVTVSWNSGALTSGVHTFPAVLQSSGLYSLSSVVTVPSSSLGTQTYICNVNHKPSNTKVDEKVEPKSCDKTHTCPPCPAPEAAGGPSVFLFPPKPKDTLMISRTPEVTCVVVDVSHEDPEVKFNWYVDGVEVHNAKTKPREEQYNSTYRVVSVLTVLHQDWLNGKEYKCKVSNKALGAPIEKTISKAKGQPREPQVCTLPPSRDELTKNQVSLSCAVKGFYPSDIAVEWESNGQPENNYKTTPPVLDSDGSFFLVSKLTVDKSRWQQGNVFSCSVMHEALHNHYTQKSLSLSPGK
light 1: EVQLLESGGGLVQPGGSLRLSCAASGFSFSSYTMSWVRQAPGKGLEWVATISGGGRDIYYPDSVKGRFTISRDNSKNTLYLQMNSLRAEDTAVYYCVLLTGRVYFALDSWGQGTLVTVSSASVAAPSVFIFPPSDEQLKSGTASVVCLLNNFYPREAKVQWKVDNALQSGNSQESVTEQDSKDSTYSLSSTLTLSKADYEKHKVYACEVTHQGLSSPVTKSFNRGEC
light 2: DIVMTQSPLSLPVTPGEPASISCRASQSVDNYVAWYLQKPGQSPQLLIYYASNRYIGVPDRFSGSGSGTDFTLKISRVEAEDVGVYYCQQHYSSPYTFGQGTKVEIKRTVAAPSVFIFPPSDRKLKSGTASVVCLLNNFYPREAKVQWKVDNALQSGNSQESVTEQDSKDSTYSLSSTLTLSKADYEKHKVYACEVTHQGLSSPVTKSFNRGEC
Regarding B4, the binding result in experiment [3] is listed as “binds”.

B5: PD1-Tim3-0477 (bispecific antibody)
heavy 1: not shown
heavy 2: QITLKESGPTLVKPTQTLTLTCTFSGFSLSTSGMSVGWIRQPPGKGLEWLAHIWLNDDVFFNPALKSRLTITKDTSKNQVVLTMTNMDPVDTATYYCVRANGYLYALDYWGQGTLVTVSSASTKGPSVFPLAPSSKSTSGGTAALGCLVEDYFPEPVTVSWNSGALTSGVHTFPAVLQSSGLYSLSSVVTVPSSSLGTQTYICNVNHKPSNTKVDEKVEPKSCDKTHTCPPCPAPEAAGGPSVFLFPPKPKDTLMISRTPEVTCVVVDVSHEDPEVKFNWYVDGVEVHNAKTKPREEQYNSTYRVVSVLTVLHQDWLNGKEYKCKVSNKALGAPIEKTISKAKGQPREPQVCTLPPSRDELTKNQVSLSCAVKGFYPSDIAVEWESNGQPENNYKTTPPVLDSDGSFFLVSKLTVDKSRWQQGNVFSCSVMHEALHNHYTQKSLSLSPGK
light 1: B4 light 1
light 2: DIQLTQSPSFLSASVGDRVTITCSASSSVSYTQWYQQKPGKAPKLWIYDAFKLAPGVPSRFSGSGSGTEFTLTISSLQPEDFATYFCHQWSSYPWTFGQGTKLEIKRTVAAPSVFIFPPSDRKLKSGTASVVCLLNNFYPREAKVQWKVDNALQSGNSQESVTEQDSKDSTYSLSSTLTLSKADYEKHKVYACEVTHQGLSSPVTKSFNRGEC
Regarding B5, the binding result in experiment [3] is on record as “binds”.
